The chains are these.
B1: 15H7 VHH-Fc (Fc fusion)
chain: QVQLVESGGRLVQAGGSLRLSCAAPGRTFRNLTLGWFRQAPGKEREFVASTSWPDDEMTYYTDSVKGRFTISRDNAKNTVYLQMNSLKPEDTAVYYCAAASWSGRSTLSYDYDYWGQGTQVTVST
B2: 15H1 VHH-Fc (Fc fusion)
chain: QVQLVESGGGLAQAGGSLRLSCASSGLIFSGSAMGWFRQAPGKEREFVGVISWNGRTTYADSVKGRFTISRDDAVNMVWLQMNNLKPEDTAVYYCAADHLNYGSGDVNPRTYDYWGQGTQVTVSS
B3: 13C8 VHH-Fc (Fc fusion)
chain: QVQLVESGGGLVQAGGSLRLSCAASGRTVNKYMTGWFRQTPGKEREFVASIDWSSTTTHYANSVKGRFTISRDKVKNTVYLQMNGLKPEDTAVYYCAAHQDSSYGYTILPIDYDSWGQGTQVTVSS
B4: 8E9 VHH-Fc (Fc fusion)
chain: QVQLVESGGGLVEAGGSLRLSCVASGSSSSINAMGWYRQAPGKQRELVASISHDGETKYANSVKGRFTISRGNAKNTIYLQMNSLKPEDTAVYYCVGDVAWVVVAGEYDYWGQGTQVTVSS
B5: 11F8 VHH-Fc (Fc fusion)
chain: QVQLVESGGGLVQAGGSLRLSCAASGRTVGYYAVGWFRQAPGKERDFVAAISWSGRNTNYADSVTGRFTIFRDNAKNTVDLQMNSLKPEDTAVYYCAADYWNYGSGSEVPNNYDTWGQGTQVTVSS
B6: 5D7 VHH-Fc (Fc fusion)
chain: QVQLVESGGGLVQAGGSLRLSCAASGRTGSRYIMGWFRQAPGKEREFVAAINWRGDSTYYADSVKGRFTIARDNAKNTAYLQMNSLKPEDTAVYYCVADRGESYYYTRSTEYTYWGQGTQVTVSS
B7: 7A9 VHH (VHH)
VHH: QVQLVESGGGLVQAGGSLRLSCSASGGTASRSAMGWFRQAPGKEREFVAGISRRNSGSTYVADSYEDSVKGRFTISRDNAKNTIYLQMNSLKPEDTAVYYCAAEPTLGWYVPRRSVEYEYWGQGTQVTVSS
B8: 16H7 VHH (VHH)
VHH: QVQLVESGGGLVQAGGSLRLSCAASGRAFSKDTMGWFRQAPGKEREFVAVISASGDSTYYADFVKGRFTISRDNAKNTEYLQMNSLKPEDTAVYHCAADGARAYYSINAHRYSWAYNYWGQGTQVTVSS
B9: 11F5 VHH (VHH)
VHH: QVQLVESGGGAVQAGDSLRLSCTASGRTFSTYAVGWFRQAPGKERELLAAITGSGRNPYYPDSLKGRFTISREYAKLPVYLQMNSLKPEDTAVYYCAARRGAIATMPLDYDHWGQGTQVTVSS
B10: 6A1 VHH (VHH)
VHH: QVQLVESGGGLVQAGGSLRLSCTASGNIFSVNVMGWHRQAPGKRRELVAALTNDGRRNYADSVKGRFTISRDNAKNTIYLEMNSLKPEDTAVYYCGTGTLESGFNSWGQGLQVTVSS
B11: 19B8 VHH (VHH)
VHH: QVQLVESGGGLVQAGGSLRLSCAASGRTFTNYAMGWFRQAPGKEREFVAAISWSGGGTNYADSVKGRFTISRDNAKNTVYLQMNSPKPEDTAVYYCATTLGYYGSSSRLYEYWGQGTQVTVSS
B12: 20D11 VHH (VHH)
VHH: QVQLVESGGGLVQAGGSLRLSCAASGRTSSIYSVGWFRQAPGKERELVAGITWSGGTTYYSDSVKGRFTISRDNAKNTVNLQMNNLKPEDTAIYYCAVDRYSMTMSARDYDYWGQGTQVTVSS
B13: 5G11 VHH (VHH)
VHH: B12 VHH with S29F, S33A, E46D, L47F, N80Y, R100T, M105L, D109S
B14: 14F3 VHH (VHH)
VHH: B12 VHH with S33G, G50L, R72K, N80F, R100T, D111E
B15: 19C10 VHH (VHH)
VHH: QVQLVESGGGLVQPGGSLRLSCAASGFTLDLNSIGWFRQAPGKEREGVSCISPSASSTHYADSVKGRFTISRDNAKNTVYLQMNSLKPEDTAVYYCATGTPSYHYCSMYGLEYDDWGQGTQVTVSS

The source of these data is patent US20250382355A1 (Merck Sharp & Dohme, published 2025).

Changes are numbered by the printed parent chain. Bounds are passed on as bounds.

The first assay has as its target T1, Biotinylated CoV2 Spike ECD PreS-AVI protein (SARS-CoV-2, UniProt P0DTC2 14-1208). Kind of assay: Octet binning; competitor 15H7. For orientation: Biolayer interferometry detects binding as a change in optical thickness at a sensor tip.
In the case of B1, the binning response is 0.1.

B2: the binning response stood at 0.11.

With B3, the binning response was 0.1.

The molecule B4 displayed a binning response of 0.11.

In turn, B5 returned a binning response of 0.14.

In the case of B6, the binning response amounted to 0.15.

A further assay deals with T1, Biotinylated CoV2 Spike ECD PreS-AVI …. Description: Octet binning; competitor 13C8.
With B1, the binning response was 0.08.

In turn, B2 registered a binning response of 0.1.

The molecule B3 gave a binning response of 0.1.

Regarding B4, the binning response was 0.11.

In the case of B5, the binning response came to 0.15.

Turning to B6, the binning response was found to be 0.15.

The target in a further assay is SARS-CoV-2 Omicron spike on pseudovirus (SARS-CoV-2). Kind of assay: cell-based or functional assay.
As for B4, the “pseudovirus neutralization IC50” value was determined as 429 nM.

Take B6: the “pseudovirus neutralization IC50” value came out at 221 nM.

The next assay concerns the target T2, SARS-CoV-2 prefusion-stabilized spike protein (SARS-CoV-2-PreS) (SARS-CoV-2, UniProt P0DTC2 14-1208). Description: Biacore, apparent affinity.
In the case of B7, the Kd is 0.22 nM.

Consider B8, for which the Kd amounted to 230 nM.

Take B9: the Kd amounted to 8 nM.

With B1, the Kd was under 0.2 nM.

On to B10, for which the Kd is over 500 nM.

In the case of B2, the Kd was under 0.2 nM.

As to B3, the Kd was under 0.2 nM.

With B4, the Kd is under 0.2 nM.

Take B5: the Kd was under 0.2 nM.

In the case of B11, the Kd amounted to 87 nM.

With B6, the Kd is under 0.2 nM.

B12: the Kd amounted to 2.2 nM.

Consider B13, for which the Kd was found to be 93 nM.

B14: the Kd is 3 nM.

With B15, the Kd was under 50 nM.

A further assay has as its target T1, Biotinylated CoV2 Spike ECD PreS-AVI …. Kind of assay: Octet binning; competitor 9B2.
Turning to B1, the binning response came out at 0.08.

B2 displayed a binning response of 0.08.

Regarding B3, the binning response is 0.11.

B4 yielded a binning response of 0.11.

B5 registered a binning response of 0.13.

Regarding B6, the binning response worked out at 0.12.

The next assay shares this target. Kind of assay: Octet binning; competitor Std-A.
B1: the binning response came out at 0.36.

As to B2, the binning response was found to be 0.35.

For the molecule B3, the binning response was 0.34.

Molecule B4 had a binning response of 0.36.

Molecule B5 yielded a binning response of 0.17.

B6 registered a binning response of 0.28.

A further assay shares this target. Description: Octet binning; competitor 8E9.
Consider B1, for which the binning response is 0.06.

For the molecule B2, the binning response came out at 0.08.

Turning to B3, the binning response came out at 0.09.

Take B4: the binning response is 0.08.

In the case of B5, the binning response is 0.12.

For B6, the binning response was found to be 0.1.

A further assay has as its target T2, SARS-CoV-2 prefusion-stabilized spike …. Kind of assay: ELISA. In general terms: ELISA stands for enzyme-linked immunosorbent assay.
For B1, it took 0.05 nM to reach a half-maximal effect (EC50).

For B2, it took 0.14 nM to reach a half-maximal effect (EC50).

For B3, the EC50 stood at 0.09 nM.

B4: the EC50 was determined as 0.08 nM.

As for B5, the concentration giving a half-maximal response (EC50) came to 0.19 nM.

As to B6, the midpoint of the response, the EC50, lay at 0.11 nM.

The target in another assay is T1, Biotinylated CoV2 Spike ECD PreS-AVI …. Kind of assay: Octet binning; competitor 1A11.
With B1, the binning response is 0.09.

For the molecule B2, the binning response came out at 0.08.

B3 returned a binning response of 0.11.

Molecule B4 registered a binning response of 0.09.

In the case of B5, the binning response was 0.12.

Take B6: the binning response came to 0.12.

A further assay has the same target. Description: Octet binning; competitor 11F8.
B1 yielded a binning response of 0.11.

B2 yielded a binning response of 0.09.

With B3, the binning response is 0.11.

For the molecule B4, the binning response turned out to be 0.11.

In turn, B5 came in with a binning response of 0.14.

In the case of B6, the binning response was found to be 0.12.

The target is the same in a further assay. Kind of assay: Octet binning; competitor Std-B.
Consider B1, for which the binning response amounted to 0.32.

B2 gave a binning response of 0.3.

With B3, the binning response was 0.31.

B4 returned a binning response of 0.34.

With B5, the binning response was determined as 0.29.

B6: the binning response came to 0.25.

Another assay shares this target. Kind of assay: Octet binning; competitor 15H1.
B1 displayed a binning response of 0.09.

B2 gave a binning response of 0.11.

Regarding B3, the binning response is 0.11.

As to B4, the binning response came out at 0.13.

Take B5: the binning response was 0.15.

In the case of B6, the binning response was 0.16.

The target is the same in the next assay. Description: Octet binning; competitor 7A9.
Take B1: the binning response stood at 0.37.

In the case of B2, the binning response turned out to be 0.35.

B3 returned a binning response of 0.37.

B4 had a binning response of 0.39.

In the case of B5, the binning response worked out at 0.35.

Take B6: the binning response amounted to 0.31.

Another assay shares this target. Kind of assay: Octet binning; competitor Std-D.
B1 returned a binning response of 0.08.

In turn, B2 returned a binning response of 0.05.

Molecule B3 showed a binning response of 0.04.

Molecule B4 came in with a binning response of 0.04.

Molecule B5 registered a binning response of 0.08.

In turn, B6 returned a binning response of 0.12.

Broadly, the EC50 is the concentration needed to bring the measured effect to its halfway point. Lower therefore signals a more potent agent.
